Measured values taken from article PMC12407084.
Positions count from the first letter of the chain named. Numbers in names are those of the source. Blank lines part the entries; values can stand above or below the binder they belong to.

Molecular target: Taxol-stabilized microtubules polymerized from bovine brain tubulin, Q6B856
Assay: fluorescence microscopy of microtubule decoration by GFP-tagged protein
Settings: chain shown with the change; 100 nM GFP-tagged Ndc80c Bonsai protein; rhodamine-labeled taxol-stabilized microtubules; parent: est. 12000; read off a plot

Chain of Taxol-stabilized microtubules polymerized from bovine brain tubulin, Q6B856 (chain, as listed by the source, chain 1 of 2): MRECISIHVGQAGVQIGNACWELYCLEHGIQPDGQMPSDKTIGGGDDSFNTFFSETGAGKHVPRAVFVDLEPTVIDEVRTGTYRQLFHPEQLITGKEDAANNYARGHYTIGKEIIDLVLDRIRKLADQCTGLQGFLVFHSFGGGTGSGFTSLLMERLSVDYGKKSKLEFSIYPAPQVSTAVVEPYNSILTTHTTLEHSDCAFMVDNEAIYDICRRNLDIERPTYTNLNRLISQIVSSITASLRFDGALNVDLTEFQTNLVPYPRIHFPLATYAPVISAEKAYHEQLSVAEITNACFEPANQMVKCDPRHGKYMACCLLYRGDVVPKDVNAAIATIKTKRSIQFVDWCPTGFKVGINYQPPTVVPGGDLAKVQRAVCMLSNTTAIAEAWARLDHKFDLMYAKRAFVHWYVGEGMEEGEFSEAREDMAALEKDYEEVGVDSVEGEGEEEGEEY
Chain of Taxol-stabilized microtubules polymerized from bovine brain tubulin, Q6B856 (Q6B856 whole entry, chain 2 of 2): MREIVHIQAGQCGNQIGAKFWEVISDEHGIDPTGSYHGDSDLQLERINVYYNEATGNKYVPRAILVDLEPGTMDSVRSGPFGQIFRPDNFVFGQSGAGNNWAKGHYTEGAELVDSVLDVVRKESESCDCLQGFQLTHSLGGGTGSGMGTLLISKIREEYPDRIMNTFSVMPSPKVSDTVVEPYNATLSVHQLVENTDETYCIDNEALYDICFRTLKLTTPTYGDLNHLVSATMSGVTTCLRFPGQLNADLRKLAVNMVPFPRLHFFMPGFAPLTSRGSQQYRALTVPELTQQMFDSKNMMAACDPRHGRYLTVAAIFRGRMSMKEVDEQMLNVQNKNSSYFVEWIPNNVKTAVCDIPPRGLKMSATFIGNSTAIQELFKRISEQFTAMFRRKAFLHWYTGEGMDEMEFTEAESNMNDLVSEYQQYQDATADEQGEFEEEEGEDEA

response: 160 a.u.
B1: Human Ndc80c Bonsai Ndc80-GFP (WT) Nuf2:K33D; Nuf2:K41D; Nuf2:K115D (protein)
chain 1: MKRSSVSSGGAGRLSMQELRSQDVNKQGLYTPQTKEKPTFGKLSINKPTSERKVSLFGKRTSGHGSRNSQLGIFSSSEKIKDPRPLNDKAFIQQCIRQLCEFLTENGYAHNVSMKSLQAPSVKDFLKIFTFLYGFLCPSYELPDTKFEEEVPRIFKDLGYPFALSKSSMYTVGAPHTWPHIVAALVWLIDCIKIHTAMKESSPLFDDGQPWGEETEDGIMHNKLFLDYTIKCYESFMSGADSFDEMNAELQSKLKDLFNVDAFKLESLEAKNRALNEQIARLEQERSTANKANAERLKRLQKSADLYKDRLGLEIRKIYGEKLQFIFTNIDPKNPESPFMFSLHLNEARDYEVSDSAPHLEGLAEFQENVRKTNNFSAFLANVRKAFTATVYN
chain 2: METLSFPRYNVAEIVIHIRNKILTGADGKNLTDNDLYPNPDPEVLHMIYMRALQIVYGIRLEHFYMMPVNSEVMYPHLMEGFLPFSNLVTHLDSFLPICRVNDFETADILCPKADRTSRFLSGIINFIHFREACRETYMEFLWQYKSSADKMQQLNAAHQEALMKLERLEKEVDEDTTVTIPSAVYVAQLYHQVSKIEWDYECEPGMVKGIHHGPSVAQPIHLDSTQLSRKFISDYLWSLVDTEW

response: 400 a.u.
B2: Human Ndc80c Bonsai Ndc80-GFP (WT) Hec1:K166D (protein)
chain 1: B1 chain 1 with K166D
chain 2: B1 chain 2 with D33K, D41K, D115K
